# Experimental data as given in paper PMC8419023 (Structure (London, England : 1993), 2021).
# Read-outs that look alike come from different tables or passages of the source. No end group written: not given here.
# Legend:
# CDK2-cyclin A^173−432 [1] = target: T1, CDK2-cyclin A^173−432 (human, UniProt P24941 1-298; P20248 173-432); assay: fluorescence polarisation
# CDK2-cyclin A^173−432 [2] = target: T1, CDK2-cyclin A^173−432; assay: ITC
# CDK2-cyclin A^173−432 [3] = target: T1, CDK2-cyclin A^173−432; assay: fluorescence polarisation; remark: listed apart in the source
# CDK2-cyclin A^173−432 [4] = target: T1, CDK2-cyclin A^173−432; assay: fluorescence polarisation; remark: listed apart in the source
# CDK2-cyclin A^1−432 = CDK2-cyclin A^1−432 (human, UniProt P24941 1-298; P20248 1-432); assay: pull-down
Binder,binding result (CDK2-cyclin A^1−432),other results
SACRNLFGPV-NH2 (not fully specified (N-terminus)) [FITC-p27^27−36 peptide],–,Kd (CDK2-cyclin A^173−432 [1]): 2.1 µM
Skp2^17−85 (domain or fragment) ATSFTWGWDSSKTSELLSGMGVSALEKEEPDSENIPQELLSNLGHPESPPRKRLKSKGSDKDFVIVRRP,–,Kd (CDK2-cyclin A^173−432 [2]): 0.496 µM; IC50 (CDK2-cyclin A^173−432 [3]): 13.4 µM; IC50 (CDK2-cyclin A^173−432 [4]): 5.1 µM
GST-Skp2^1−94 (domain or fragment) MHRKHLQEIPDLSSNVATSFTWGWDSSKTSELLSGMGVSALEKEEPDSENIPQELLSNLGHPESPPRKRLKSKGSDKDFVIVRRPKLNRENFPG,binds,–
GST-Skp2^1−85 (domain or fragment) MHRKHLQEIPDLSSNVATSFTWGWDSSKTSELLSGMGVSALEKEEPDSENIPQELLSNLGHPESPPRKRLKSKGSDKDFVIVRRP,binds,–
GST-Skp2^1−74 (domain or fragment) MHRKHLQEIPDLSSNVATSFTWGWDSSKTSELLSGMGVSALEKEEPDSENIPQELLSNLGHPESPPRKRLKSKG,binds,–
GST-Skp2^1−64 (domain or fragment) MHRKHLQEIPDLSSNVATSFTWGWDSSKTSELLSGMGVSALEKEEPDSENIPQELLSNLGHPES,binds,–

# Further lines, with some results ahead:
binding result (CDK2-cyclin A^1−432),Binder,other results
binds,GST-Skp2^1−53 (domain or fragment) MHRKHLQEIPDLSSNVATSFTWGWDSSKTSELLSGMGVSALEKEEPDSENIPQ,–
binds,MHRKHLQEIPDLSSNVATSFTWGWDSSKTSELLSGMGVSALEK (domain or fragment) [GST-Skp2^1−43],–
